From US20150299272A1 (UNIVERSITY OF NEWCASTLE UPON TYNE, published 2015)

Assays:
[1] = target: Caf1-6His NT + Spacer linking peptide (Yersinia pestis); assay: co-expression in E. coli, western blot of partly heat-dissociated polymer
[2] = target: the molecule itself; assay: Superdex 200 gel filtration (self-association)

B1: Caf1 WT (naturally occurring Caf1 polypeptide monomer from Yersinia pestis; fraction 1 antigen polymer) (other)
chain: ADLTASTTATATLVEPARITLTYKEGAPITIMDNGNIDTELLVGTLTLGGYKTGTTSTSVNFTDAAGDPMYLTFTSQDGNNHQFTTKVIGKDSRDFDISPKVNGENLVGDDVVLATGSQDFFVRSIGSKGGKLAAGKYTDAVTVTVSNQ
**Q.** What does the source list for B1?
**A.** binding result [1]: binds; binding result [2]: binds
